In paper PMC11551749:
Like-named read-outs stand apart in the source and are kept apart here.

Columns and labels:
[1] = target: T1, hnRNPA1 (human, UniProt P09651 1-372); assay: bulk FRET
[2] = target: T2, RPA heterotrimer (RPA1/RPA2/RPA3) (human, UniProt P27694;P15927;P35244 1-616;1-270;1-121); assay: bulk FRET
[3] = target: T2, RPA heterotrimer (RPA1/RPA2/RPA3); assay: EMSA
[4] = target: hnRNPA1;RPA-E240K heterotrimer (human;human, UniProt P09651;P27694;P15927;P35244 1-372;1-616;1-270;1-121, |E240K); assay: bulk FRET
Chain of hnRNPA1;RPA-E240K heterotrimer (P09651 whole entry, chain 1 of 4): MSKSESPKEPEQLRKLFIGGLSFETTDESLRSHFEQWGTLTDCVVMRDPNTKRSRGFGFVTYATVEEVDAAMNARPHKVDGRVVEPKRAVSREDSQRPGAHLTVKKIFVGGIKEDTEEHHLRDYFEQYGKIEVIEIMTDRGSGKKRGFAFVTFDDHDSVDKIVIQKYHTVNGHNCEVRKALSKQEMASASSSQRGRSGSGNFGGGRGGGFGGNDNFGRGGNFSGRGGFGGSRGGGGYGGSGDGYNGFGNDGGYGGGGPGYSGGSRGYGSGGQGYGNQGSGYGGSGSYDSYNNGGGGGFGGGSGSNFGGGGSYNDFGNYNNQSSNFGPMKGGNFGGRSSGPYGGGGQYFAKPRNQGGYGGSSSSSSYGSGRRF
Chain of hnRNPA1;RPA-E240K heterotrimer (P27694 whole entry E240K, chain 2 of 4): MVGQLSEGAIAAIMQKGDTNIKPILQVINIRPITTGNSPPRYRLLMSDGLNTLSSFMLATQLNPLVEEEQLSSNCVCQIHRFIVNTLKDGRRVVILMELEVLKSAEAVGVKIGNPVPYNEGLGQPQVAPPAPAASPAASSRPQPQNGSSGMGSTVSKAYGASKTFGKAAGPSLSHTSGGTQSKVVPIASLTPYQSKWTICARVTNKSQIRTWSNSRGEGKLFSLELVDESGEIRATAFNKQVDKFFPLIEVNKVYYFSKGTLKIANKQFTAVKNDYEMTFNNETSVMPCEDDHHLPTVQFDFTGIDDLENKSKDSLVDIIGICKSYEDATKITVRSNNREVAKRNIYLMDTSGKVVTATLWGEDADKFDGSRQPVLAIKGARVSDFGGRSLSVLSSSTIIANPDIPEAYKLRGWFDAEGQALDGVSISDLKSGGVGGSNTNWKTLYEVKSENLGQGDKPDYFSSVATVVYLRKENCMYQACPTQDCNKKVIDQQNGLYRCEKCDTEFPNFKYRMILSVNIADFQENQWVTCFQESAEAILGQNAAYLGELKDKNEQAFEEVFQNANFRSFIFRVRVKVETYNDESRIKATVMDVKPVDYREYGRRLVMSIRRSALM
Chain of hnRNPA1;RPA-E240K heterotrimer (P15927 whole entry, chain 3 of 4): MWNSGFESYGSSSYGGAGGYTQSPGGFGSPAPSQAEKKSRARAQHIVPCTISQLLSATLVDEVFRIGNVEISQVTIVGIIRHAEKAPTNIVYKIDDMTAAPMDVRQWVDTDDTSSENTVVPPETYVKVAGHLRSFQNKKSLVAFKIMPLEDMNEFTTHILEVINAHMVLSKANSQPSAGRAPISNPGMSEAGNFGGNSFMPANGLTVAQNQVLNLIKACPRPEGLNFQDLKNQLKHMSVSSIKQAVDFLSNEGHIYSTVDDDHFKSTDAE
Chain of hnRNPA1;RPA-E240K heterotrimer (P35244 whole entry, chain 4 of 4): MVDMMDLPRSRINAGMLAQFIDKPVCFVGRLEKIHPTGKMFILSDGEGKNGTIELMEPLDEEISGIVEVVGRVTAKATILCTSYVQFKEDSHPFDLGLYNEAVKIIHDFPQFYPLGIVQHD

[5] = target: hnRNPA1;RPA heterotrimer (RPA1/RPA2/RPA3) (human;human, UniProt P09651;P27694;P15927;P35244 1-372;1-616;1-270;1-121, |); assay: bulk FRET
Chain of hnRNPA1;RPA heterotrimer (RPA1/RPA2/RPA3) (P09651 whole entry, chain 1 of 4): as the sequence (P09651 whole entry, chain 1 of 4) above
Chain of hnRNPA1;RPA heterotrimer (RPA1/RPA2/RPA3) (P27694 whole entry, chain 2 of 4): as the sequence (P27694 whole entry E240K, chain 2 of 4) above, with K240E counted along it
Chain of hnRNPA1;RPA heterotrimer (RPA1/RPA2/RPA3) (P15927 whole entry, chain 3 of 4): as the sequence (P15927 whole entry, chain 3 of 4) above
Chain of hnRNPA1;RPA heterotrimer (RPA1/RPA2/RPA3) (P35244 whole entry, chain 4 of 4): as the sequence (P35244 whole entry, chain 4 of 4) above

[6] = target: T1, hnRNPA1; assay: bulk FRET; remark: listed apart in the source
[7] = target: RPA-E240K heterotrimer (human, UniProt P27694;P15927;P35244 1-616;1-270;1-121, E240K); assay: mass photometry
Chain of RPA-E240K heterotrimer (P27694 whole entry E240K, chain 1 of 3): as the sequence (P27694 whole entry E240K, chain 2 of 4) above
Chain of RPA-E240K heterotrimer (P15927 whole entry, chain 2 of 3): as the sequence (P15927 whole entry, chain 3 of 4) above
Chain of RPA-E240K heterotrimer (P35244 whole entry, chain 3 of 3): as the sequence (P35244 whole entry, chain 4 of 4) above

[8] = target: T2, RPA heterotrimer (RPA1/RPA2/RPA3); assay: mass photometry

T2 sequence (P27694 whole entry, chain 1 of 3): as the sequence (P27694 whole entry E240K, chain 2 of 4) above, with K240E counted along it
T2 sequence (P15927 whole entry, chain 2 of 3): as the sequence (P15927 whole entry, chain 3 of 4) above
T2 sequence (P35244 whole entry, chain 3 of 3): as the sequence (P35244 whole entry, chain 4 of 4) above
T1 sequence (P09651 whole entry): as the sequence (P09651 whole entry, chain 1 of 4) above

Question: For TTAGGGTTAGGGTTA (ssDNA) [h-tel-15(FRET)], which Kd [1] is on record?
Answer: 73.5 ± 4.3 nM

Question: Does AGGGGCGGGCGCTTTAGGAAAAGGGCGGGT (structured_DNA) [BCL-2G4 1245] bind [2]?
Answer: binds

Question: Which results are given for TTAGGGTTAGGGTTAGGGTTAGGGTTAGGG (structured_DNA) [h-telG4 (FRET), five telomeric repeats]?
Answer: binding result [3]: binds; Kd [4]: 75.9 ± 25.5 nM; Kd [5]: 27.4 ± 2.7 nM; Kd [6]: 20.6 ± 3.5 nM

Question: Does TGGGGAGGGTGGGGAGGGTGGGGAAGG (structured_DNA) [PU27G4] bind [2]?
Answer: binds

Question: Does TTTTTTTTTTTTTTTTTTTTTTTTTTTTTT (ssDNA) [dT30] bind [2]?
Answer: binds

Question: Which results are given for TTAGGGTTAGGGTTAGGGTTAGGGTTAGGG (structured_DNA) [h-telG4 (MP)]?
Answer: binding result [7]: binds; binding result [8]: binds
